Measurements: US20240132591A1 (PANDION OPERATIONS, published 2024)
Numbering of substitutions follows the chain as printed.

T1: Human MAdCAM (human, UniProt Q13477 19-317, limits assumed)
T1 construct: also called huMAdCAM; human MAdCAM-1
T1 sequence (looked up): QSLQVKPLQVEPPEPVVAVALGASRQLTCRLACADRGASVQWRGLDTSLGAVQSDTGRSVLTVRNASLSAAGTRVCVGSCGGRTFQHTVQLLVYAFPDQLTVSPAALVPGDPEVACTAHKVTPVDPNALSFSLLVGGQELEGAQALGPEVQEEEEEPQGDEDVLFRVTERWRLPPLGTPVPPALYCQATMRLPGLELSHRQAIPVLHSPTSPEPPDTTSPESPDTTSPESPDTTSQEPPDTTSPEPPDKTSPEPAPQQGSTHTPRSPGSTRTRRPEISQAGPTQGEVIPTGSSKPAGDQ

B1: MIAB148 (antibody, human IgG1, kappa)
heavy: EVQLLESGGGLVQPGGSLRLSCAASGFTFSDFWMHWVRQAPGKGLEWISYISGDSGYTNYADSVKGRFTISRDNSKNTLYLQMNSLRAEDTAVYYCARDRPYYYYMDVWGKGTTVTVSSASTKGPSVFPLAPSSKSTSGGTAALGCLVKDYFPEPVTVSWNSGALTSGVHTFPAVLQSSGLYSLSSVVTVPSSSLGTQTYICNVNHKPSNTKVDKKVEPKSCDKTHTCPPCPAPEAAGAPSVFLFPPKPKDTLMISRTPEVTCVVVDVSHEDPEVKFNWYVDGVEVHNAKTKPREEQYNSTYRVVSVLTVLHQDWLNGKEYKCKVSNKALPAPIEKTISKAKGQPREPQVYTLPPSREEMTKNQVSLTCLVKGFYPSDIAVEWESNGQPENNYKTTPPVLDSDGSFFLYSKLTVDKSRWQQGNVFSCSVMHEALHNHYTQKSLSLSPGGGGGSAPTSSSTKKTQLQLEHLLLDLQMILNGINNYKNPKLTRMLTFKFYMPKKATELKHLQCLEEELKPLEEALNLAPSKNFHLRPRDLISDINVIVLELKGSETTFMCEYADETATIVEFINRWITFSQSIISTLT
light: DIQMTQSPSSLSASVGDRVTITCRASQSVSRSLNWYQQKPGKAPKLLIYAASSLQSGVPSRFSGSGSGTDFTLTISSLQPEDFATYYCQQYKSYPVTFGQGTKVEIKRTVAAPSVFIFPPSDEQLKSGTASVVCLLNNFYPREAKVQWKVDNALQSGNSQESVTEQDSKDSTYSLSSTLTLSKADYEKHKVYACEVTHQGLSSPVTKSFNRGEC
B2: MIAB141 (antibody, human IgG1, kappa)
heavy: B1 heavy
light: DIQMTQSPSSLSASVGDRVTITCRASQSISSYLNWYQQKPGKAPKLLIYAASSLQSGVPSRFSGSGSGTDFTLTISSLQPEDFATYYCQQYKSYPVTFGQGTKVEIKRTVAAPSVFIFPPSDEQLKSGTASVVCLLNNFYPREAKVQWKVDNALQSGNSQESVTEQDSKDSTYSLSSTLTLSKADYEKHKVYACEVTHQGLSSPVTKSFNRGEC
notes: LCDR1 germlined
B3: MIAB145 (antibody, human IgG1, kappa)
heavy: B1 heavy
light: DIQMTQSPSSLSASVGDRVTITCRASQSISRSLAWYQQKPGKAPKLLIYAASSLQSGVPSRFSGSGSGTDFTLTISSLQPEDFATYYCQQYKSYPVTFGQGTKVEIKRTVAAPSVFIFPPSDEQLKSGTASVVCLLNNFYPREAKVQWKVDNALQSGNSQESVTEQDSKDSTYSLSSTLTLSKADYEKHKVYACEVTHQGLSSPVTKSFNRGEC
notes: also called MIAB145-001
B4: MIAB146 (antibody, human IgG1, kappa)
heavy: B1 heavy
light: DIQMTQSPSSLSASVGDRVTITCRASQSVSSSLAWYQQKPGKAPKLLIYAASSLQSGVPSRFSGSGSGTDFTLTISSLQPEDFATYYCQQYKSYPVTFGQGTKVEIKRTVAAPSVFIFPPSDEQLKSGTASVVCLLNNFYPREAKVQWKVDNALQSGNSQESVTEQDSKDSTYSLSSTLTLSKADYEKHKVYACEVTHQGLSSPVTKSFNRGEC
notes: also called MIAB146-001
B5: MIAB147 (antibody, human IgG1, kappa)
heavy: B1 heavy
light: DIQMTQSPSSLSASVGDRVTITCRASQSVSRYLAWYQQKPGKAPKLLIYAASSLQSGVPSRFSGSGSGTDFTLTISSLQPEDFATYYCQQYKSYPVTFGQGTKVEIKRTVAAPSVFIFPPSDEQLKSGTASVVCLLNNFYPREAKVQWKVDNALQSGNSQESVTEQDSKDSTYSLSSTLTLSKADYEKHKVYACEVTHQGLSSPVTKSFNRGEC
notes: also called MIAB147-001
B6: MIAB149 (antibody, human IgG1, kappa)
heavy: B1 heavy
light: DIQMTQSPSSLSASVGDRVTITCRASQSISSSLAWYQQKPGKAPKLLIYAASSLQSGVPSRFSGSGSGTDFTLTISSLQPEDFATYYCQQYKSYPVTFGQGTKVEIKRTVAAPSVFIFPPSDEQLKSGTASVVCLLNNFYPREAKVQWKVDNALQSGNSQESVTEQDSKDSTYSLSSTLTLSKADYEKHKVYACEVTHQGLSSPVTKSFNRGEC
notes: also called MIAB149-001
B7: MIAB174 (antibody, human IgG1, kappa)
heavy: B1 heavy with F32Y
light: B4 light with S31R
notes: also called MIAB174-001
B8: MIAB175 (antibody, human IgG1, kappa)
heavy: B1 heavy with D31S, F32Y
light: B4 light with S31R
notes: also called MIAB175-001
B9: MIAB177 (antibody, human IgG1, kappa)
heavy: B1 heavy with I48V, Y50A, D54S, S55G, Y57S, N59Y
light: B4 light with S31R
notes: also called MIAB177-001
B10: MIAB178 (antibody, human IgG1, kappa)
heavy: B1 heavy with D31S, F32Y, Y50A, D54S, Y57S, N59Y
light: B4 light with S31R
notes: also called MIAB178-001
B11: MIAB182 (antibody, human IgG1, kappa)
heavy: B1 heavy with D31S, F32Y, I48V, Y50A, D54S, S55G, Y57S, N59Y
light: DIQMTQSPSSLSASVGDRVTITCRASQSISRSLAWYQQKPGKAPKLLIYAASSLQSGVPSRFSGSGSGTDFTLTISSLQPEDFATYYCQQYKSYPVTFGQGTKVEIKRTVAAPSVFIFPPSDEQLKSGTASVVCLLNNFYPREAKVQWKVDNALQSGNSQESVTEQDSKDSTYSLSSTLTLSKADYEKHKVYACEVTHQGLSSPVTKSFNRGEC
notes: also called MIAB182-001
B12: MIAB183 (antibody, human IgG1, kappa)
heavy: B1 heavy with D31S, F32Y, I48V, Y50A, D54S, S55G, Y57S, N59Y
light: B4 light
notes: also called MIAB183-001
B13: MIAB184 (antibody, human IgG1, kappa)
heavy: B1 heavy with D31S, F32Y, I48V, Y50A, D54S, S55G, Y57S, N59Y
light: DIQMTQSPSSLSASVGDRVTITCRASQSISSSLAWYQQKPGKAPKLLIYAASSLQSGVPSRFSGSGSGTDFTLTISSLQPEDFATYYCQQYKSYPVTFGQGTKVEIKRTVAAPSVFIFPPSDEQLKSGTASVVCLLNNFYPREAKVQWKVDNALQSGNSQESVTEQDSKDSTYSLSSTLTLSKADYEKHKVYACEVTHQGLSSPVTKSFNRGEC
notes: also called MIAB184-001
B14: MIAB129 (antibody, human IgG1, kappa)
heavy: B1 heavy with Y102G
light: B4 light with S31R
B15: MIAB139 (antibody)
heavy: B1 heavy
light: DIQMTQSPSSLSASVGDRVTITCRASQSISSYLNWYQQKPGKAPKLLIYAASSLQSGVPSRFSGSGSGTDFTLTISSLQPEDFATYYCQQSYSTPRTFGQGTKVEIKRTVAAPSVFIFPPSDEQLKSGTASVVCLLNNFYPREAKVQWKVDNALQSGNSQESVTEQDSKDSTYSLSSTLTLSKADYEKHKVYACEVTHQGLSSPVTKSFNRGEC
B16: MIAB155 (antibody, human IgG1, kappa)
heavy: B1 heavy
light: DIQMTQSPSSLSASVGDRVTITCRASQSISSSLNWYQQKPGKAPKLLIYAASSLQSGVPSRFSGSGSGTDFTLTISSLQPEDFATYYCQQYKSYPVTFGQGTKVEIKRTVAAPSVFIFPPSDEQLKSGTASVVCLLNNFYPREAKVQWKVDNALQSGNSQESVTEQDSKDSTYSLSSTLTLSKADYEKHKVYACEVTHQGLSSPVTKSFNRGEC
B17: MIAB158 (antibody, human IgG1, kappa)
heavy: B1 heavy
light: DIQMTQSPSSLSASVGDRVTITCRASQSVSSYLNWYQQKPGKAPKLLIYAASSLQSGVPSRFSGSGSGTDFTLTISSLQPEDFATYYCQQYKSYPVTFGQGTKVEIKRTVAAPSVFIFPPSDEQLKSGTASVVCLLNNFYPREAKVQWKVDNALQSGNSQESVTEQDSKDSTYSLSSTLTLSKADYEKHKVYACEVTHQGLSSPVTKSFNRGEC
B18: MIAB198 (antibody, human IgG1, kappa)
heavy: B1 heavy with Y105I, T456A
light: B4 light with S31R
notes: also called MIAB198-CHO; MIAB198-HEK
B19: MIAB204 (Fc fusion)
chain: APTSSSTKKTQLQLEHLLLDLQMILNGINNYKNPKLTRMLTFKFYMPKKATELKHLQCLEEELKPLEEALNLAPSKNFHLRPRDLISDINVIVLELKGSETTFMCEYADETATIVEFINRWITFSQSIISTLTGGGGSGGGGSGGGGSGGGGSDKTHTCPPCPAPEAAGAPSVFLFPPKPKDTLMISRTPEVTCVVVDVSHEDPEVKFNWYVDGVEVHNAKTKPREEQYNSTYRVVSVLTVLHQDWLNGKEYKCKVSNKALPAPIEKTISKAKGQPREPQVYTLPPSREEMTKNQVSLTCLVKGFYPSDIAVEWESNGQPENNYKTTPPVLDSDGSFFLYSKLTVDKSRWQQGNVFSCSVMHEALHNHYTQKSLSLSPGGGGGSGGGGSGGGGSEVQLLESGGGLVQPGGSLRLSCAASGFTFSDFWMHWVRQAPGKGLEWISYISGDSGYTNYADSVKGRFTISRDNSKNTLYLQMNSLRAEDTAVYYCARDRPYYYYMDVWGKGTTVTVSSGGGGSGGGGSGGGGSGGGGSDIQMTQSPSSLSASVGDRVTITCRASQSVSRSLAWYQQKPGKAPKLLIYAASSLQSGVPSRFSGSGSGTDFTLTISSLQPEDFATYYCQQYKSYPVTFGQGTKVEIK

target: T1, Human MAdCAM; assay: BLI Octet, AHC capture

| Binder | Kd | koff | kon | binding result | fold reduction of affinity vs PRNT1 |
| --- | --- | --- | --- | --- | --- |
| B1 | 2690 nM | 0.314 s⁻¹ | 117000 M⁻¹ s⁻¹ |  |  |
| B2 |  |  |  | no binding (tested: 150 nM) |  |
| B3 | 22.2 nM | 0.00897 s⁻¹ | 405000 M⁻¹ s⁻¹ |  |  |
| B4 | 43.8 nM | 0.0197 s⁻¹ | 449000 M⁻¹ s⁻¹ |  |  |
| B5 |  |  |  | no binding (tested: 200 nM) |  |
| B6 | 68.8 nM | 0.0259 s⁻¹ | 376000 M⁻¹ s⁻¹ |  |  |
| B7 | 21.8 nM | 0.00969 s⁻¹ | 445000 M⁻¹ s⁻¹ |  |  |
| B8 | 22.6 nM | 0.0106 s⁻¹ | 471000 M⁻¹ s⁻¹ |  |  |
| B9 | 218 nM | 0.0851 s⁻¹ | 391000 M⁻¹ s⁻¹ |  |  |
| B10 | 519 nM | 0.22 s⁻¹ | 372000 M⁻¹ s⁻¹ |  |  |
| B11 | 119 nM | 0.0267 s⁻¹ | 226000 M⁻¹ s⁻¹ |  | 10 fold |
| B12 | 362 nM | 0.0599 s⁻¹ | 166000 M⁻¹ s⁻¹ |  | 20 fold |
| B13 | 563 nM | 0.0818 s⁻¹ | 145000 M⁻¹ s⁻¹ |  | 40 fold |

target: T2, Insulin (UniProt P01308 25-54; P01308 90-110); assay: ELISA on insulin-coated plate
T2 construct: Polyreactivity antigen; mature insulin has A and B chains; also called human insulin

| Binder | binding result |
| --- | --- |
| B1 | no binding (tested: 100 nM) |
| B14 | no binding (tested: 100 nM) |
| B15 | no binding (tested: 100 nM) |
| B16 | no binding (tested: 100 nM) |
| B17 | no binding (tested: 100 nM) |
| B18 | no binding (tested: 100 nM) |
| B2 | no binding (tested: 100 nM) |
| B19 | no binding (tested: 100 nM) |

target: T2, Insulin; assay: ELISA on insulin-coated plate, 100 nM
Procedure: Non-specific DNA and Insulin binding is predictive of poor pharmacokinetics (PK). An immunosorbent plate was coated with dsDNA at a concentration of 1 μg/mL or Insulin at 5 μg/mL in PBS pH 7.4, 75 μl/well, and incubated overnight at 4° C. Wells were washed with PBS pH 7.4 containing 0.05% Tween-20 (wash buffer) three times, and then blocked with 200 μl/well 1% BSA in PBS pH 7.4 (block buffer) for two hours at room temperature. […] The diluted material was added to the DNA/insulin coated plate at 75 μl/well for 1 hour at room temperature. After three washes with wash buffer, a donkey anti-human FcY HRP conjugated polyclonal antibody, diluted to 1:5000 in assay buffer, was added to the plate at 75 μl/well for 1 hr at room temperature. After three washes with wash buffer and three washes with wash buffer (with no tween-20), the assay was developed with TMB, and stopped with 1N HCL. OD 450 nm was measured. The experiment included appropriate controls for non-specific binding of test articles to the plate/block in the absence of DNA or insulin.

| Binder | Insulin polyreactivity score |
| --- | --- |
| B1 | 3.63 |
| B14 | 2.43 |
| B15 | 2.08 |
| B16 | 1.99 |
| B17 | 2.67 |
| B19 | 8.43 |
